# Reference: paper PMC4837482, “The complex binding mode of the peptide hormone H2 relaxin to its receptor RXFP1” (Nature Communications, 2016)
# Changes are numbered by the printed parent chain.
# Legend:
# Assay in all cases: cAMP activity assay (pCRE β-galactosidase reporter), transfected HEK293T cells
# Assay type in all cases: cell-based
# RXFP1 K52A = molecular target: T1, RXFP1 K52A (Homo sapiens, UniProt Q9HBX9, K74A); settings: construct K52A, ±s.e.m.
# T1 construct: cells expressing full-length RXFP1 and mutants; expressed in transfected cells; host or cells: HEK293T
# T1 sequence (Q9HBX9 23-757 K74A limits assumed): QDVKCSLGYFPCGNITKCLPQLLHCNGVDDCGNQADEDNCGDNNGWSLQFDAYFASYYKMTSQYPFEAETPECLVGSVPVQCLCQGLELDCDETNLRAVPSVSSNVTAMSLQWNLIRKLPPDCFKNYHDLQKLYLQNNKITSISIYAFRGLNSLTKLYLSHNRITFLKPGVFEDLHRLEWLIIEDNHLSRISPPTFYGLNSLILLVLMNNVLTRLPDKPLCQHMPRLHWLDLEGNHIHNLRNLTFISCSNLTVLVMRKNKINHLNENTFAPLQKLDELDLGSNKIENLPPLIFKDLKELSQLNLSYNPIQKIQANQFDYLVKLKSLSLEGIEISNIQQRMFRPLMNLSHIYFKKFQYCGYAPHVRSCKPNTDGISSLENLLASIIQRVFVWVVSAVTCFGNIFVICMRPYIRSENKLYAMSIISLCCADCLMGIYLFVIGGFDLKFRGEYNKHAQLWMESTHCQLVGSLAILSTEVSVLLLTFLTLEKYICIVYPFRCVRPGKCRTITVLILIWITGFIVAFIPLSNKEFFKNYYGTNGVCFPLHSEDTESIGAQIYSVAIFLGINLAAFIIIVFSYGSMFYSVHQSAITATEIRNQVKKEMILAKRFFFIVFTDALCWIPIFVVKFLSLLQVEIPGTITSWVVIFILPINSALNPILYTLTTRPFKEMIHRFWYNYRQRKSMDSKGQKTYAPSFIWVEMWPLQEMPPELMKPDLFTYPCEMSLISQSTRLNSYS
# Method in brief: (§1)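 Relaxin-stimulated cells go through overnight storage at −80 °C, two 10-min lysis steps at pH 8.0 with shaking, and chlorophenol red-β-D-galactopyranoside development. Output at 570 nm is scaled against the 5 μM Forskolin maximum.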
# RXFP1 F54A = molecular target: T2, RXFP1 F54A (Homo sapiens, UniProt Q9HBX9, F76A); settings: construct F54A, ±s.e.m.
# T2 construct: cells expressing full-length RXFP1 and mutants; expressed in transfected cells; host or cells: HEK293T
# T2 sequence (Q9HBX9 23-757 F76A limits assumed): T1 sequence (Q9HBX9 23-757 K74A limits assumed) with A52K, F54A
# Method in brief: as §1
# RXFP1 G45W46-AA = molecular target: T3, RXFP1 G45W46-AA (Homo sapiens, UniProt Q9HBX9, G67A/W68A)
# T3 construct: transiently transfected human embryonic kidney (HEK) 293T cells expressing full-length RXFP1 and mutants; expressed in transfected cells; host or cells: HEK293T
# T3 sequence (Q9HBX9 23-757 G67A/W68A limits assumed): T1 sequence (Q9HBX9 23-757 K74A limits assumed) with G45A, W46A, A52K
# Method in brief: as §1
# [1] = percentage of maximum response to 5 μM Forskolin
substance,measurement,setting,value
H2 relaxin: two-chain 6-kDa peptide hormone structurally related to insulin; recombinant human gene-2 H2 relaxin provided by Corthera,H2 relaxin pEC50,RXFP1 K52A; cAMP reporter,11.06±0.11
same,H2 relaxin Emax,RXFP1 K52A; [1],154.63±33.73 (5) %
same,H2 relaxin pEC50,RXFP1 F54A; cAMP reporter,10.23±0.13 (4)
same,H2 relaxin Emax,RXFP1 F54A; [1],104.89±10.48 (4) %
same,H2 relaxin-stimulated cAMP activity,RXFP1 G45W46-AA; G45A/W46A RXFP1,virtually unable to signal
same,H2 relaxin pEC50,"RXFP1 G45W46-AA; construct G45W46-AA, cAMP reporter",<6 (3)
